Test [1] deals with FAM-labeled H3 peptide (aa 1-21) with no modification (UniProt P68431). The test is described as follows: fluorescence polarisation; 50 nM fluorescein-labeled H3 peptide, increasing PHD (0-900 μM) in SEC Buffer (25 mM HEPES pH 7.5, 100 mM NaCl, 5 mM BME), 25 °C; simple binding isotherm.
In test [2] the target is FAM-labeled H3 peptide (aa 1-21) with K4me1 (UniProt P68431). The description is as above.
Test [3] concerns the target T1, CBP TAZ2 (mouse, UniProt P45481 1764-1855).
T1 construct: the recombinant construct itself is described in the Supplementary Note; also called isolated CBP TAZ2; recombinant CBP TAZ2; source: E. coli, purified (details in the Supplementary Note)
T1 sequence (looked up): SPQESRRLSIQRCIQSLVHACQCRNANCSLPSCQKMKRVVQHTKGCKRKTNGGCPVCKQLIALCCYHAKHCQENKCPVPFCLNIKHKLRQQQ
The test is described as follows: ITC; 760 μM mouse Aire CTT in the syringe, 19-76 μM TAZ2 in the cell; 20 °C; 20 mM HEPES pH 7.5, 100 mM NaCl, 1 mM dithiothreitol; two-site binding model. To be noted: both partners purified. A general note: In ITC the heat of successive injections is recorded.

In test [4] the target is T2, CBP TAZ2 (mouse, UniProt P45481 1764-1855).
T2 chain: T1 sequence (looked up)
As to the kind of experiment: ITC; two-site model, second site.

The Kd is the equilibrium constant for the complex coming apart. A low value points to higher affinity. In the case of CHD4 PHD2 (domain or fragment), the Kd in test [1] amounted to 45.3 µM.

Consider mouse Aire PHD1 (domain or fragment), for which the figures for the Kd in test [1] and in test [2] were 5.25 µM and 23.2 µM, respectively.

B1: mouse Aire CTT (aa 480-552) (domain or fragment, UniProt Q9Z0E3 480-552, looked up)
chain: TPTPGTPGEAVPTSGPRPAPGLAKVGDDSASHDPVLHRDDLESLLNEHSFDGILQWAIQSMSRPLAETPPFSS
notes: Aire (autoimmune regulator), mouse, C-terminal tail (CTT), residues 480-552; Used in NMR (15N13C-labelled) and ITC; whether tags were left on it is told only in the Supplementary Note; also called isolated CTT; source: E. coli, purified (details in the Supplementary Note)
Turning to B1, in the test with CBP TAZ2 [3], the “Kd of the high-affinity site (two-site model)” value came out at 0.26 µM and the “Kd of the second, low-affinity site (two-site model)” value worked out at 40 µM. The molecule further came in with a Kd with CBP TAZ2 [4] of 39.7 µM.

These data come from article PMC11362013, “Mechanism for controlled assembly of transcriptional condensates by Aire” (Nature Immunology, 2024).
